Data: paper PMC8791618

Columns and labels:
[1] = biological target: Haliangium ochraceum encapsulated ferritin (Haliangium ochraceum) (UniProt D0LZ73); experiment: SDS-PAGE; purified Loaded-Enc on 15% acrylamide SDS-PAGE, Coomassie blue stain
[2] = biological target: Haliangium ochraceum encapsulated ferritin (Haliangium ochraceum) (UniProt D0LZ73); experiment: LC-MS; purified Loaded-Enc at ~2 uM on a reverse-phase C4 column, water/acetonitrile with 0.1% formic acid; deconvoluted masses
[3] = biological target: Haliangium ochraceum encapsulin (Haliangium ochraceum) (UniProt D0LZ74); experiment: HDX-MS; Empty-Enc against Loaded-Enc nanocompartments; labelling in phosphate buffer in D2O pH 8.0 at 4 C, up to 24 hours; pepsin digestion
[4] = biological target: Haliangium ochraceum encapsulated ferritin (Haliangium ochraceum) (UniProt D0LZ73); experiment: cryo-EM structure; Loaded-Enc; asymmetric (C1) reconstruction without imposed symmetry, 3.7 A; local refinement of a single EncFtn density in CryoSPARC with PDB 5N5F docked
[5] = biological target: Haliangium ochraceum encapsulin (Haliangium ochraceum) (UniProt D0LZ74); experiment: as above; settings: scale: EncFtn decamers per encapsulin nanocompartment
[6] = biological target: Haliangium ochraceum encapsulin (Haliangium ochraceum) (UniProt D0LZ74); experiment: cryo-EM structure; Loaded-Enc (3 mg/ml) vitrified; reconstruction with imposed I1 symmetry (2.5 A), then symmetry expansion and masked focused refinement of the fivefold pentamer (closed 2.2 A, open 2.4 A), Relion3.1

stoichiometry N [1]	stoichiometry N [2]	reduction in hydrogen/deuterium exchange of encapsulin peptide 21-37, Loaded-Enc against Empty-Enc [3] [%]	stoichiometry N [4]	stoichiometry N [5]	stoichiometry N [6]	Substance
2	2	12	10	4	–	Haliangium ochraceum encapsulated ferritin (from UniProt D0LZ73 1-131) (enzyme)
–	–	–	–	–	60	Haliangium ochraceum encapsulin (from UniProt D0LZ74 1-266) (natural protein)
